Like-named read-outs stand apart in the source and are kept apart here.
Columns and labels:
CD3 on Jurkat cells [1] = molecular target: T1, CD3 on Jurkat cells (UniProt P07766 23-207, limits assumed); assay: flow cytometry on Jurkat cells
T1 construct: whole, on cells; the whole CD3/TCR complex stands on the cells; also called Jurkat CD3
Protocol: (§1) Jurkat cells were plated at 100,000 cells/well in a 96-well plate with 50 μL of full media. Anti-Nectin4/CD3 antibodies were 3-fold serial titrated from 20 nM. 50 μL was added to the cells and incubated for 1 hours at room temperature with shaking. Samples were washed one time with flow buffer. […] Samples were washed once with flow buffer. Samples were stained with 100 uL Zombie Fixable Viability Dyes at 1:800 dilution per well and incubated in dark at room temperature for 30 mins. Samples were spun down at 1300 rpm for 5 minutes and washed once with 200 uL flow buffer. Reconstituted samples in 200 uL of flow buffer and read on Attune NxT cytometer. EC50 values for CD3 binding were calculated using Prism 8.1 software.

[2] = molecular target: T2, human CD3E HIS tagged protein (human, UniProt P07766 23-126); assay: SPR Biacore T200, bispecific captured on Protein A chip, CD3E-HIS injected
T2 construct: not shown: HIS tag
Protocol: (§2) The assay was run with Biacore T200 control software version 2.0. For each cycle, 1 ug/mL of anti-hNectin4/CD3 antibody was captured for 60 seconds at flow rate of 10 ul/min on flow cell 2 in 1×HBSP buffer on Protein A sensor chip. 2-fold serial diluted CD3E-HIS or hNectin4-HIS tagged protein was injected onto both reference flow cell 1 and anti-Nectin4/CD3 bispecific captured flow cell 2 for 150 seconds at flow rate of 30 ul/mins followed by wash for 300 seconds. The flow cells were then regenerated with Glycine pH2 for 60 seconds at flow rate of 30 ul/mins. 8 concentration points from 100 nM-0 nM (CD3E-HIS) or 300 nM-0 nM (Nectin4-HIS) was assayed per anti-Nectin4 IgG in a 96 well plate. The kinetics of Anti-Nectin4/CD3 bispecific binding to CD3E and Nectin4 proteins was analyzed with Biacore T200 evaluation software version 3.0. The specific binding response unit was derived from subtraction of binding to reference flow cell 1 from antibody captured flow cell 2. Table 10 below listed the kinetics results. ND means not determined. NA means data not available.

[3] = molecular target: T3, human Nectin4-HIS tagged recombinant protein (human, UniProt Q96NY8 32-349); assay: ELISA, coated Nectin4 HIS tagged protein, bispecific titrated, anti-Human HRP
T3 construct: also called hNectin4-HIS; Nectin4 HIS tagged protein; not shown: HIS tag
T3 sequence (looked up): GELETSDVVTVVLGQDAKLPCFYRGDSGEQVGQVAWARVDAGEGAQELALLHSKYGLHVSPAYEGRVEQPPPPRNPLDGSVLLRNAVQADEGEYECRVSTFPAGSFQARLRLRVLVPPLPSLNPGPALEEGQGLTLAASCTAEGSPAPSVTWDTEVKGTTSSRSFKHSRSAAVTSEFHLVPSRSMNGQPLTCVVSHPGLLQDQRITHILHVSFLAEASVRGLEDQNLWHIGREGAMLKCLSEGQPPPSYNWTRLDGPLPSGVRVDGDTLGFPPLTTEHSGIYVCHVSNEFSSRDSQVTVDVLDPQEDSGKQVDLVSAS
Protocol: (§3) An ELISA assay was developed to determine the EC₅₀ of anti-Nectin4/CD3 bispecific antibodies. Briefly, 384 well plate was immobilized with human CD3E or Nectin4 HIS tagged protein at final concentration of 2 ug/mL in 1×PBS in total volume of 25 uL per well. The plate was incubated overnight at 4° C. followed by blocking with 80 uL of superblock per well for 1 hour. Purified anti-Nectin4/CD3 was 3-fold serial titrated from 100 nM. 25 uL was added to human Nectin4/CD3 immobilized wells and incubated for 1 hour with shaking. The CD3E or Nectin4 binding was detected by adding 25 uL of anti-Human HRP diluted at 1:10000 in 1×PBST. In between each step, the plate was washed 3 times with […] in a plate washer. The plate was then developed with 20 ul of TMB substrate for 5 mins and stopped by adding 20 ul of 2N sulfuric acid. The plate was read at OD450 nm Biotek plate reader and then plotted in Prism 8.1 software to calculate EC50.

[4] = molecular target: T4, Nectin4 on Nectin4 positive cancer cell lines (T47D, HT1376, HCC1500, HT-29) (human, UniProt Q96NY8 32-510); assay: flow cytometry on HT1376 cells
T4 construct: whole, on cells; The cell line of each value is named under assay
T4 sequence (looked up): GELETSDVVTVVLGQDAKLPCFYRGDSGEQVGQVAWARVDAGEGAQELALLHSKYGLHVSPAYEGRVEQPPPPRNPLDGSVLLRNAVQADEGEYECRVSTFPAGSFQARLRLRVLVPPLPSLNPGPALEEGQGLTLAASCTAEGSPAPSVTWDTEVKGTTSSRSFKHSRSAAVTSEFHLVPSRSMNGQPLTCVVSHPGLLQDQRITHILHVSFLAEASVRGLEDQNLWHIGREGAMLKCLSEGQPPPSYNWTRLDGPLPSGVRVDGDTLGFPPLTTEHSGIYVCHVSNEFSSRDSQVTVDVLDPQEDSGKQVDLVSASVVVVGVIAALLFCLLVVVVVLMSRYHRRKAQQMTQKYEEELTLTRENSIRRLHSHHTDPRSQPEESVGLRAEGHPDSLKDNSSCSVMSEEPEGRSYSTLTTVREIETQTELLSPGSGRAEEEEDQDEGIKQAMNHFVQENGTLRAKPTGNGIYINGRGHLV

CD3 on Jurkat cells [5] = molecular target: T1, CD3 on Jurkat cells; assay: flow cytometry on Jurkat cells; remark: listed apart in the source
Protocol: as §1
Similar methods of above mentioned were used to measure the binding activities of anti-Nectin4/CD3/IL-2 complexes to CHO/Nectin4 and Jurkat cells, respectively.

[6] = molecular target: T4, Nectin4 on Nectin4 positive cancer cell …; assay: cell-based or functional assay
[7] = molecular target: T5, full-length human Nectin4 with C-terminal flag and Myc tags on CHO cells (human, UniProt Q96NY8 32-510); assay: flow cytometry on CHO/Nectin4 cells
T5 construct: whole, on cells; also called Nectin4/CHO; CHO/Nectin4; not shown: C-terminal flag and Myc tags of pCMV6-Entry vector
T5 sequence (looked up): T4 sequence (looked up)
Protocol: Nectin4/CHO Nectin4 cells were plated at 100,000 cells/well in a 96-well plate in 50 μL of full media. Cells were rested 1 hour at 37° C. Anti-Nectin4/CD3 was 3-fold serial titrated from 50 nM. 50 μL was added to the cells and incubated for 1 hours with shaking. Samples were washed one time with flow buffer. […] Samples were washed once with flow buffer. Samples were stained with 100 uL Zombie Fixable Viability Dyes (1:800 dilution) per well and incubated in dark at room temperature for 30 mins. Samples were spun down at 1200 rpm for 5 minutes and washed once with 200 uL flow buffer. Reconstituted samples in 200 uL of flow buffer and read on Attune NxT cytometer. EC₅₀ values for Nectin4 Binding were determined using Prism software.

[8] = molecular target: T4, Nectin4 on Nectin4 positive cancer cell …; assay: flow cytometry on T47D cells
[9] = molecular target: T4, Nectin4 on Nectin4 positive cancer cell …; assay: cell-based or functional assay; remark: listed apart in the source
CD3 on Jurkat cells [10] = molecular target: T1, CD3 on Jurkat cells; assay: cell-based or functional assay
[11] = molecular target: T3, human Nectin4-HIS tagged recombinant …; assay: SPR Biacore T200, bispecific captured on Protein A chip, hNectin4-HIS injected
Protocol: as §2

[12] = molecular target: T2, human CD3E HIS tagged protein; assay: ELISA, coated human CD3E HIS tagged protein, bispecific titrated, anti-Human HRP
Protocol: as §3

T1 sequence (P07766 23-207 limits assumed): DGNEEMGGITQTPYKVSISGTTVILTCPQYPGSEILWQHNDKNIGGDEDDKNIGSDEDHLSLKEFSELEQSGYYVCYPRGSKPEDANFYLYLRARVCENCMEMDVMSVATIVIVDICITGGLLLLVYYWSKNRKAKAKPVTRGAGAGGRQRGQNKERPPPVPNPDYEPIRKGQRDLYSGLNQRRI
T2 sequence (P07766 23-126 limits assumed): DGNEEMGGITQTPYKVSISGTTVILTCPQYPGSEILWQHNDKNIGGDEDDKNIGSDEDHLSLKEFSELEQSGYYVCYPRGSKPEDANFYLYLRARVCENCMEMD

EC50 (CD3 on Jurkat cells [1]): 4.7 nM | Kd [2]: 3.26 nM | koff [2]: 0.000739 s⁻¹ | kon [2]: 227000 M⁻¹ s⁻¹ | EC50 [3]: 0.21 nM | EC50 [4]: 0.14 nM | EC50 (CD3 on Jurkat cells [5]): 4.37 nM | EC50 Values in CTL Assay Against PBMC [6]: 1.4 pM | EC50 [7]: 0.146 nM | EC50 [8]: 0.044 nM | EC50 Values in CTL Assay Against T47D Cancer Cells (PBMC) [9]: 4.7 pM | EC50 Values in CTL Assay Against T47D Cancer Cells (T cell) [9]: 6.4 pM | NFAT reporter EC50 (CD3 on Jurkat cells [10]): 0.4 pM | Kd [11]: 3.67 nM | koff [11]: 0.000472 s⁻¹ | kon [11]: 129000 M⁻¹ s⁻¹ | EC50 [12]: 0.011 nM
B1: EP458/EP378/EP289 anti-Nectin4/CD3 bispecific antibody (bispecific antibody)
heavy 1: EVQLVQSGAEVKKPGASVKVSCKASGYTFTGYYMHWVRQAPGQGLEWMGRINPNSGGTNYAQKFQGRVTMTRDTSISTAYMELSGLRSDDTAVYFCARVTYNIGWYIDYWGQGTLVTVSSASTKGPSVFPLAPSSKSTSGGTAALGCLVKDYFPEPVTVSWNSGALTSGVHTFPAVLQSSGLYSLSSVVTVPSSSLGTQTYICNVNHKPSNTKVDKKVEPKSCDGGGGSGGGGSEVQLVESGGGLVQPGGSLRLSCAASGFTFSTYAMNWVRQAPGKGLEWVGRIRSKYNNYATYYADSVKGRFTISRDDSKNTLYLQMNSLRAEDTAVYYCVRHGNFGDSYVSWFAYWGQGTLVTVSSGGGGSGGGGSGGGGSGGGGSQAVVTQEPSLTVSPGGTVTLTCGSSTGAVTTSNYANWVQQKPGKSPRGLIGGTNKRAPGVPARFSGSLLGGKAALTISGAQPEDEADYYCALWYSNHWVFGGGTKLTVLEPKSCDKTHTCPPCPAPEAAGGPSVFLFPPKPKDTLMISRTPEVTCVVVDVSHEDPEVKFNWYVDGVEVHNAKTKPREEQYNSTYRVVSVLTVLHQDWLNGKEYKCKVSNKALGAPIEKTISKAKGQPREPQVCTLPPSRDELTKNQVSLSCAVKGFYPSDIAVEWESNGQPENNYKTTPPVLDSDGSFKLVSKLTVDKSRWQQGNVFSCSVMHEALHNHYTQKSLSLSPGK
heavy 2: not shown
light: QAVVTQPPSVSVAPGKTATITCGGNNIGSKGVHWYQQKPGQAPVLVIYYDTDRPSGIPERLSGSNSGNTATLTISRVEAGDEADYYCQVWDSSSDHPVFGGGTKLTVLGQPKANPTVTLFPPSSEELQANKATLVCLISDFYPGAVTVAWKADGSPVKAGVETTKPSKQSNNKYAASSYLSLTPEQWKSHRSYSCQVTHEGSTVEKTVAPTECS
notes: Bivalent for Nectin4: B09 heavy chain with sp34 scFv between CH1 and hinge, hole (EP458); B09 heavy chain knob (EP378); light chain EP289 pairs with both; also called EP458/378/289

Reference: patent publication US20240368275A1 (ELPIS BIOPHARMACEUTICALS, published 2024)
